Publication PMC13270198
pKd, pKi: −log10 of the molar value. Values joined by “and” are separate entries in the source; they are usually repeats but may differ in a detail not shown here. Equal entries are not always repeated.

Key:
[1] = tested on: Cas12a2 (SuCas12a2) (Sulfuricurvum sp. PC08-66); assay: fluorescence anisotropy; conditions: phosphorothioate (non-hydrolyzable); Fluorescence anisotropy: 25 mM HEPES pH 7.2, 150 mM KCl, 2 mM MgCl2, 5 ug/ml BSA, 10 nM probe, read at 30 min; temperature not stated
[2] = tested on: Cas12a2 (SuCas12a2) (Sulfuricurvum sp. PC08-66); assay: competition (cleavage inhibition); conditions: phosphorothioate (non-cleavable); Fluorescence anisotropy: 25 mM HEPES pH 7.2, 150 mM KCl, 2 mM MgCl2, 5 ug/ml BSA, 10 nM probe, read at 30 min; temperature not stated

| Substance | pKd [1] | pKi [2] |
| --- | --- | --- |
| PT collateral ssRNA | 8.17 and 7.43 and 7.72 | – |
| PT-ssDNA inhibitor | – | 6.92 and 7.05 and 7.30 |
| PT-ssRNA inhibitor | – | 6.21 and 6.96 |
